From patent publication US20200168293A1 (UCB, published 2020)
Changes are numbered by the printed parent chain. Each block holds one binder with its values, some of them ahead of it.

Legend:
[1] = target: T1, TGFβ3 (UniProt P10600 301-412); test: SPR (Biacore), Fab immobilized on the chip
T1 construct: also called TGFb3
T1 sequence (looked up): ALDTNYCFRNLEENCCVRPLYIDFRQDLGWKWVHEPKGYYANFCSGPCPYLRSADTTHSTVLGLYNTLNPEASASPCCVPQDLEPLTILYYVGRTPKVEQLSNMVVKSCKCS

[2] = target: T2, TGFβ1 (UniProt P01137 279-390); test: SPR (Biacore), Fab immobilized on the chip
T2 construct: also called TGFb1
T2 sequence (P01137 279-390 limits assumed): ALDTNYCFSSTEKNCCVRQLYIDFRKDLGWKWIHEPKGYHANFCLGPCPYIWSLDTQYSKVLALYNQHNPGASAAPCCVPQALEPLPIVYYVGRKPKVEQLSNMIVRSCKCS

[3] = target: T1, TGFβ3; test: cell-based or functional assay
[4] = target: T2, TGFβ1; test: cell-based or functional assay
[5] = target: T3, TGFβ2 (UniProt P61812 303-414); test: cell-based or functional assay
T3 sequence (looked up): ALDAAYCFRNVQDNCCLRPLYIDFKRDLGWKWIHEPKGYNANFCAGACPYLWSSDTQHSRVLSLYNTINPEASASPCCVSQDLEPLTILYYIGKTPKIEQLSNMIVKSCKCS

[6] = target: T4, Keap1 (Kelch 1-6 domains, AA 314-611) (Homo sapiens (Human), UniProt Q14145 321-611); test: SPR, captured Fab, Keap1 analyte
T4 construct: Kelch domain expressed in E. coli with an N-terminal His tag and TEV site; the same preparation is described for SPR; also called Kelch-like ECH-associated protein 1; Kelch domain of Keap1
T4 sequence (Q14145 other isoform, or with tags, fused parts or gaps limits assumed): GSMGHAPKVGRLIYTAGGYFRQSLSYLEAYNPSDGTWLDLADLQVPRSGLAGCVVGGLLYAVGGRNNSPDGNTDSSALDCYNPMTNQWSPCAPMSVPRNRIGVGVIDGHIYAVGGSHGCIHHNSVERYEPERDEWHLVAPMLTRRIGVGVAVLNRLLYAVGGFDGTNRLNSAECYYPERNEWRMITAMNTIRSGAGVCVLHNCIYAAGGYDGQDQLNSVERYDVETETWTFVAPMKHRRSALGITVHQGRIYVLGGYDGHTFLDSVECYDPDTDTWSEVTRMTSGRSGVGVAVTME
Description: Surface plasmon resonance (SPR) experiments were carried out on a Biacore 3000 system (GE Healthcare) and detailed experimental details are given below. Briefly, supernatant containing expressed Fab (or sham transfected supernatant control) was injected over immobilized anti-human F(ab′)₂ polyclonal on a CM5 chip. A second injection of a Keap1 titration or a zero analyte control allowed association and dissociation kinetics to be monitored. Chip regeneration completed each sensorgram cycle. Sensorgrams were corrected for baseline drift, caused by slow dissociation of captured Fab, by subtraction of an adjacent zero analyte control cycle. […] Specificity of Fab binding to Keap1 was assessed by the same protocol by titration of an Nrf2 peptide analogue against a constant concentration of Keap1.
Surface plasmon resonance (SPR) experiments were carried out on a Biacore 3000 system (GE Healthcare) using reagents from the same manufacturer. […] Initial binding of Keap1 to expressed Fabs was assessed by injecting 50 μl supernatant, diluted 1 in 5 in running buffer, over the reference and anti-F(ab′)₂ flow cells at a flow rate of 10 μl/min, followed by a 150 μl injection of 0, 500 or 5000 nM Keap1 in running buffer at a flow rate of 30 μl/min.

[7] = target: T4, Keap1 (Kelch 1-6 domains, AA 314-611); test: Biacore competition assay (FIG. 33)
Description: (§1) Surface plasmon resonance (SPR) experiments were carried out on a Biacore 3000 system (GE Healthcare) using reagents from the same manufacturer. […] The latter was immobilised to the activated carboxymethyl dextran surface via amine coupling as follows: a fresh mixture of 50 mM N-hydroxysuccimide and 200 mM 1-ethyl-3-(3-dimethylaminopropyl)-carbodiimide was injected for 5 minutes at a flow rate of 10 μl/min, followed by 50 μg/ml anti-human F(ab′)₂ in 10 mM acetate pH 5.0 buffer for 5 min at the same flow rate. Finally the surface was deactivated with a 10 minute pulse of 1 M ethanolamine.HCl pH 8.5. […] Initial binding of Keap1 to expressed Fabs was assessed by injecting 50 μl supernatant, diluted 1 in 5 in running buffer, over the reference and anti-F(ab′)₂ flow cells at a flow rate of 10 μl/min, followed by a 150 μl injection of 0, 500 or 5000 nM Keap1 in running buffer at a flow rate of 30 μl/min. […] Association and dissociation kinetics of Keap1 binding to captured Fabs were determined by the same protocol over at least 8 values of the following concentrations: 75, 100, 150, 250, 350, 500, 750, 1000, 1500, 2500, 3500 and 5000 nM. Zero Keap1 controls were interspersed between the former cycles in order to correct for baseline drift and sham transfected supernatant was assessed at each Keap1 concentration in order to determine and correct for non-specific binding of Keap1.

[8] = target: T4, Keap1 (Kelch 1-6 domains, AA 314-611); test: Biacore competition assay, % inhibition against [Ab] M, fitted with log concentration vs normalized response/variable slope; neither the sheet nor the text names the surface-bound partner
Description: as §1

[9] = target: T1, TGFβ3; test: SPR (Biacore)
[10] = target: T2, TGFβ1; test: SPR (Biacore)

B2: G56 Fab (Fab, V domains shown)
VH: EVQLVESGGGLIRPGGSLRLSCKGSGFIFENFGFGWVRQGPGKGLEWVSGTNWNGGDSRYGDSVKGRFTISRDNSNNFVYLQMNSLRPEDTAIYYCARGTDYTIDETGERAQGSGTFWYFDVWGRGTLVTVSS
VL: EIVLTQSPATLSVSPGERATLSCRASQNVHPRYFAWYQQKRGQSPRLLIHSGSTRAAGIADRFSGGGSGMHFTLTITRVEPEDFAVYFCQQYGGSPYTFGQGTRVELR
notes: Scaffold 3U4B
- Fraction of Fab binding sites occupied @ 500 nM Keap1 [6]: 0.023 fraction

B3: G56.1 Fab (Fab, V domains shown)
VH: B2 VH with R59Q
VL: B2 VL with Q27R
notes: Scaffold 3U4B
- Fraction of Fab binding sites occupied @ 500 nM Keap1 [6]: 0.027 fraction

Now from value to binder:

- Kd [1]: 32.9 nM
- Kd [2]: 106 nM
- TGFβ3 IC50 in the reporter gene assay (n = 2) [3]: 10.6 nM
- TGFβ1 IC50 in the reporter gene assay (n = 2) [4]: 52.8 nM
- TGFβ2 IC50 in the reporter gene assay (n = 2) [5]: 36.8 nM
B1: Fab184 (Fab, V domains shown)
VH: QVQLQQSGPELVRPGVSVKISCKGSGYTFIAEMLHWVKQSHAESLEWIGLIIPAVGITYYNQKFKDKATMTVDIASSTAYLELARLTSEDSAIYYCARSWAEGLFFDYWGQGTLVT
VL: DIVMTQTPKFLLVSAGDKVTITCKASQSVSNALTWYQQKPGQSPKLLIYYASNRYTGVPDRFTGSGYGTDFTFTISTVQAEDLAVYFCQQDYGAPPTFGGGTKVEIKR
notes: Fab; Scaffold 3MXW; also called designed Fab

- fold lower potency than its Fab form (LS146 Fab) [7]: 3 fold
- IC50 [8]: 79 nM
B4: LS146-scFv (scFv)
scFv: EVQLVESGGGLVQPGGSLRLSCAASGFAISASSIHWVRQAPGKCLEWVASIDPETGETLYAKSVAGRFTISADTSKNTAYLQMNSLRAEDTAVYYCARAYAGDGVYYADVWGQGTLVTVSSGGGGSGGGGSGGGGSGGGGSDIQMTQSPSSLSASVGDRVTITCRASQSVSSAVAWYQQKPGKAPKLLIYSASSLYSGVPSRFSGSRSGTDFTLTISSLQPEDFATYYCQQSYSFPSTFGCGTKVEIKRTENLYFQ
notes: VH-(Gly4Ser)4-VL followed by a TEV site and His10 tag; also called LS146 formatted as a single chain Fv; scFv-LS146

- binding result [9]: no binding
- binding result [10]: no binding
B5: Fab design 186 (Fab, V domains shown)
VH: EVQLVQSGAEVKKPGESLKISCKGSGYSFTAYWISWVRQMPGKGLEWMGRIIPSVSITNYSPSFQGHVTISADKAISTAYLQWSSLKASDTAMYYCARLLMQGAMLTFDSWGQGTLVT
VL: DIQMTQSPSSLSASVGDRVTITCRASQSIGLALAWYQQKPGKAPKLLIYAASSLQSGVPSRFSGSGSGTDFTLTISSLQPEDFATYYCQQGNTLSYTFGQGTKVEIKR
notes: Fab; Scaffold 3NAC
